This note sets out measurements from patent publication US20230212237.

Data set [1] deals with GST-Rheb Y35N.
Data set [2] addresses GST-Rheb T23M.
The target of data set [3] is GST-Rheb G63A.
For data set [4], the target named is GST-Rheb S21L.
Data set [5] deals with GST-Rheb G29S.
Data set [6] addresses GST-Rheb E40K.
Data set [7] concerns the target GST-Rheb Q64L.
Data set [8] addresses GST-Rheb wild type (recombinant, human Rheb).

Chain of GST-Rheb wild type (recombinant, human Rheb) (chain, as listed by the source): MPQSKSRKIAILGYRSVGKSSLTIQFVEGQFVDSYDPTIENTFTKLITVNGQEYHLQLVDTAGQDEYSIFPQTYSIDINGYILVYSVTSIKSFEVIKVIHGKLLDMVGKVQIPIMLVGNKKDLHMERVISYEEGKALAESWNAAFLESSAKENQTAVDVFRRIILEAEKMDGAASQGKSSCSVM

B1: FLAG-TSC1 and FLAG-TSC2 (TSC complex) (protein)
chain 1: MAQQANVGELLAMLDSPMLGVRDDVTAVFKENLNSDRGPMLVNTLVDYYLETSSQPALHILTTLQEPHDKHLLDRINEYVGKAATRLSILSLLGHVIRLQPSWKHKLSQAPLLPSLLKCLKMDTDVVVLTTGVLVLITMLPMIPQSGKQHLLDFFDIFGRLSSWCLKKPGHVAEVYLVHLHASVYALFHRLYGMYPCNFVSFLRSHYSMKENLETFEEVVKPMMEHVRIHPELVTGSKDHELDPRRWKRLETHDVVIECAKISLDPTEASYEDGYSVSHQISARFPHRSADVTTSPYADTQNSYGCATSTPYSTSRLMLLNMPGQLPQTLSSPSTRLITEPPQATLWSPSMVCGMTTPPTSPGNVPPDLSHPYSKVFGTTAGGKGTPLGTPATSPPPAPLCHSDDYVHISLPQATVTPPRKEERMDSARPCLHRQHHLLNDRGSEEPPGSKGSVTLSDLPGFLGDLASEEDSIEKDKEEAAISRELSEITTAEAEPVVPRGGFDSPFYRDSLPGSQRKTHSAASSSQGASVNPEPLHSSLDKLGPDTPKQAFTPIDLPCGSADESPAGDRECQTSLETSIFTPSPCKIPPPTRVGFGSGQPPPYDHLFEVALPKTAHHFVIRKTEELLKKAKGNTEEDGVPSTSPMEVLDRLIQQGADAHSKELNKLPLPSKSVDWTHFGGSPPSDEIRTLRDQLLLLHNQLLYERFKRQQHALRNRRLLRKVIKAAALEEHNAAMKDQLKLQEKDIQMWKVSLQKEQARYNQLQEQRDTMVTKLHSQIRQLQHDREEFYNQSQELQTKLEDCRNMIAELRIELKKANNKVCHTELLLSQVSQKLSNSESVQQQMEFLNRQLLVLGEVNELYLEQLQNKHSDTTKEVEMMKAAYRKELEKNRSHVLQQTQRLDTSQKRILELESHLAKKDHLLLEQKKYLEDVKLQARGQLQAAESRYEAQKRITQVFELEILDLYGRLEKDGLLKKLEEEKAEAAEAAEERLDCCNDGCSDSMVGHNEEASGHNGETKTPRPSSARGSSGSRGGGGSSSSSSELSTPEKPPHQRAGPFSSRWETTMGEASASIPTTVGSLPSSKSFLGMKARELFRNKSESQCDEDGMTSSLSESLKTELGKDLGVEAKIPLNLDGPHPSPPTPDSVGQLHIMDYNETHHEHS
chain 2: not shown
On to B1, for which the “GAP assay: hydrolysis of Rheb-bound [alpha-32P]GTP to GDP (thin-layer chromatography)” value in data set [1] is “TSC1/TSC2 were completely unable to promote hydrolysis of GTP bound to the S21L, T23M, Y35N, E40K and G63A mutants”; in data set [2] it was “TSC1/TSC2 were completely unable to promote hydrolysis of GTP bound to the S21L, T23M, Y35N, E40K and G63A mutants”; in data set [3], “TSC1/TSC2 were completely unable to promote hydrolysis of GTP bound to the S21L, T23M, Y35N, E40K and G63A mutants”; in data set [4], “TSC1/TSC2 were completely unable to promote hydrolysis of GTP bound to the S21L, T23M, Y35N, E40K and G63A mutants”; in data set [5], “partial resistance to them was seen for Rheb mutants G29S and Q64L”; in data set [6] it was “TSC1/TSC2 were completely unable to promote hydrolysis of GTP bound to the S21L, T23M, Y35N, E40K and G63A mutants”. Further, the “GAP assay: hydrolysis of Rheb-bound [alpha-32P]GTP to GDP (thin-layer chromatography)” value in data set [7] was “partial resistance to them was seen for Rheb mutants G29S and Q64L”; in data set [8], “Incubation with FLAG-TSC1 and FLAG-TSC2 led to hydrolysis of Rheb-GTP into Rheb-GDP”.
